This note sets out measurements from publication doi:10.1101/728907 (bioRxiv, 2019).

The experiment deals with T1, GFLV-derived virus-like particles (VLP) in which enhanced GFP is encaged (Grapevine fanleaf virus, isolate not …).
T1 chain: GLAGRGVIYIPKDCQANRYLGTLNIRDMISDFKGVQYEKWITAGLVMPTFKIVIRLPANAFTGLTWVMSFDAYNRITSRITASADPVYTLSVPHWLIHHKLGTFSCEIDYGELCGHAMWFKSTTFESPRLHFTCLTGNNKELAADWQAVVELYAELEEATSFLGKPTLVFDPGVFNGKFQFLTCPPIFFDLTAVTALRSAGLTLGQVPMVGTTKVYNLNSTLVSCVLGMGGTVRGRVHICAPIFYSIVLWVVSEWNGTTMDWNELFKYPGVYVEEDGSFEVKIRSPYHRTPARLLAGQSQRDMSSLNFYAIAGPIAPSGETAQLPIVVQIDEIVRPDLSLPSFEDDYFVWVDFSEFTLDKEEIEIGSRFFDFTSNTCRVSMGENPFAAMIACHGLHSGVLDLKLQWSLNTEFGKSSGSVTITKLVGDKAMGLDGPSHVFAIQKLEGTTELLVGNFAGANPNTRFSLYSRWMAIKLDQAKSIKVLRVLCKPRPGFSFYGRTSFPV
In words: MST.

B1: Nanobody Nb23 specific to GFLV (VHH)
VHH: QVQLQESGGGSVQVGGSLRVACAASGDTFSGYLAAWFRQAPGKGREGVAAINSKRHTTSYADSVKGRFTISKDNADNIMYLEMNSLKPEDTAIYYCAAADAIGLAEYWSTPTLSAARYKYWGQGTQVTVSS
As to B1, the Kd was 9.13 nM.
